# Assay results from patent US11906524B2, “Urea biosensors and uses thereof” (Duke University, priority 2015, dated 2024).
# Residue numbers refer to the chain shown, from its start. In names and notes the source's numbering stands. Like-named read-outs stand apart in the source and are kept apart here.
# B1: ctUBP6: urea-binding protein from Clostridium thermocellum, SEQ ID NO: 17 (protein)
# chain: MVEEPVDNKPGTDTSAEDTIKVGILHSLSGTMAISEVSLKDAELMAIEEINQAGGLLGKKIEPVIEDGASDWPTFAEKAKKLLQNDKVATVFGCWTSASRKAVLPVFEENNGLLWYPVQYEGMESSPNIFYTGAAPNQQIVPAVEWLLENKGKRFFLLGSDYVFPRTANKIIKAQLSAIGGELIAEEYTPLGHTDYSTIVNKIKTAKPDVVFNTLNGDSNVAFFKQLKDAGITSEDITVCSVSVAEEEIRGIGAENIKGHLVSWNYYQTTDTPENKEFVEKYKSKYGSDRVTDDPIEAAYIAVHLWAEAVKKAGSFEVEKVKEAAKGLEFKAPEGLVKIEGENQHLWKPVRIGEVQEDGLIKEIWSTSEAVRPDPYLKTYDWAKGLSDGGSHHHHHH
# modifications: ctUBP6 (with signal peptide replaced with M and a GGSHHHHHH at C-terminus)
# B2: csUBP7: urea-binding protein from Caldicellulosiruptor saccharolyticus, C89A, SEQ ID NO: 18 (protein)
# chain: MSSSESEKEKSEETIKVGILHSLSGTMSISEVSLKDAELMAIEEINNNGGVLGKKLEPIVEDGASDWPTFAEKAKKLLQKDKVAVIFGAWTSASRKAVLPVVEENNGLLFYPVQYEGLESSPNIFYMGAAPNQQIVPAVKWLFDNGKKRFYLLGSDYVFPRTANKIIKAYLKYLGGVVVGEEYTPLGHTDYSSVINKIKAAKPDVVFNTLNGDSNVAFFKQLKDAGIDANTLPVMSVSIAEEEIKGIGPEYLKGHLVTWNYFQSVDTPENKEFVEKYKKKYGEDRVTDDPIEAAYIGVYLWAKAVEKAGSTDVDKVREAAKGIEFNAPEGPVKIDGDNQHLYKTVRIGEILENGQIRELWKTNKPVKPDPYLKGYEWAQGLSEQGGSHHHHHH
# modifications: csUBP7 (with signal peptide replaced with M and a GGSHHHHHH at C-terminus, and also comprising a C89A substitution)
# B3: csUBP7 Y157C: csUBP7 157C cysteine mutant (SEQ ID NO: 37), tested as Acrylodan and Badan conjugates (conjugate)
# chain: B2 chain with Y157C
# modifications: Acrylodan or Badan conjugate; csUBP7_157C (157C substitution mutant with signal peptide replaced with M and a GGSHHHHHH at C-terminus, and also comprising a C89A substitution)
# B4: csUBP7 W90C: csUBP7 90C cysteine mutant (SEQ ID NO: 28), tested as Acrylodan and Badan conjugates (conjugate)
# chain: B2 chain with W90C
# modifications: Acrylodan or Badan conjugate; csUBP7_90C (90C substitution mutant with signal peptide replaced with M and a GGSHHHHHH at C-terminus, and also comprising a C89A substitution)
# B5: csUBP7 L186C: csUBP7 186C cysteine mutant (SEQ ID NO: 40), tested as Acrylodan and Badan conjugates (conjugate)
# chain: B2 chain with L186C
# modifications: Acrylodan or Badan conjugate; csUBP7_186C (186C substitution mutant with signal peptide replaced with M and a GGSHHHHHH at C-terminus, and also comprising a C89A substitution)
# B6: csUBP7 T91C: csUBP7 91C cysteine mutant (SEQ ID NO: 29), tested as Acrylodan and Badan conjugates (conjugate)
# chain: B2 chain with T91C
# modifications: Acrylodan or Badan conjugate; csUBP7_91C (91C substitution mutant with signal peptide replaced with M and a GGSHHHHHH at C-terminus, and also comprising a C89A substitution)
# B7: csUBP7 N211C: csUBP7 211C cysteine mutant (SEQ ID NO: 41), tested as Acrylodan and Badan conjugates (conjugate)
# chain: B2 chain with N211C
# modifications: Acrylodan or Badan conjugate; csUBP7_211C (211C substitution mutant with signal peptide replaced with M and a GGSHHHHHH at C-terminus, and also comprising a C89A substitution)
# B8: csUBP7 T69C: csUBP7 69C cysteine mutant (SEQ ID NO: 27), tested as Acrylodan and Badan conjugates (conjugate)
# chain: B2 chain with T69C
# modifications: Acrylodan or Badan conjugate; csUBP7_69C (69C substitution mutant with signal peptide replaced with M and a GGSHHHHHH at C-terminus, and also comprising a C89A substitution)
# B9: csUBP7 E116C: csUBP7 116C cysteine mutant (SEQ ID NO: 36), tested as Acrylodan and Badan conjugates (conjugate)
# chain: B2 chain with E116C
# modifications: Acrylodan or Badan conjugate; csUBP7_116C (116C substitution mutant with signal peptide replaced with M and a GGSHHHHHH at C-terminus, and also comprising a C89A substitution)
# Legend:
# [1] = Thermal stability of purified UBP candidates (SYPRO Orange thermal melt, Roche LightCycler); type: physicochemical; details: apo-protein; SYPRO Orange monitors unfolded protein
# Protocol: The urea-binding properties of these leads were determined experimentally (Table 4). These experiments comprise four successive steps: • 1. Synthetic gene construction. […] Heterologous protein expression of the homologues in E. coli. […] Verification of urea binding.
# Analysis of urea-binding properties using thermal melts.
# [2] = Temperature- and urea-dependent fluorescence landscapes of fluorescent conjugates (Roche LightCycler); type: binding; design: key: y, yes; n, no; details: fluorescent response to urea
# Method in brief: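 Acrylodan or Badan was attached to single-cysteine csUBP7 mutants and fluorescence was recorded over 0–4.8 M urea in 20 mM KCl, 20 mM MOPS (pH 7.4), with temperature stepped by 1K. Urea Kd came from ratiometric single-site fits, and Kd values across temperatures were fit to the Gibbs-Helmholtz equation.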
# [3] = Urea titration of emission intensity spectra (Nanodrop3300) with ratiometric analysis, singly labeled conjugates; type: binding; design: key to Acrylodan Intensity / Badan Intensity: +, increases in response to urea; −, decreases; 0, no change; key to Badan Dipoles / Acrylodan Dipoles: blue, (maxima <500 nm); g, green (maxima >500 nm); b/g, mixed population; key to Acrylodan Shape / Badan Shape: m, monochromatic; d, dichromatic (i.e. spectral shape changes); 0, no change; details: for Acrylodan Intensity / Badan Intensity: emission intensity change on urea; for Acrylodan Shape / Badan Shape: emission spectrum shape change on urea; for Kd: urea; for Badan Dipoles / Acrylodan Dipoles: estimated change in populations of major emission bands
# Text: Determination of emission intensity spectra.
# Ratiometric analysis of urea binding. […] 2
# For a single urea-binding site, the fractional saturation is given by
# [formula] where [L] is the ligand (urea) concentration and Kd the dissociation constant, ^trueKd for ytrue.
# [formula] where ^appIλ2 and ^satIλ2 are the emission intensities of the monochromatic signal at wavelength λ2 of the ligand-free and ligand-bound protein, respectively.
# [4] = csUBP7 Acrylodan conjugate, read-out: Acrylodan ^trueKd
# [5] = csUBP7 Badan conjugate, read-out: Badan ^trueKd
"Kd [3, 4] [mM]","Kd [3, 5] [mM]",Molecule,Thermostability ^apoTm [1] [°C],Response ([2]; Acrylodan conjugate),Response ([2]; Badan conjugate),Acrylodan Intensity ([3]; csUBP7 Acrylodan conjugate),Acrylodan Shape ([3]; csUBP7 Acrylodan conjugate),Badan Intensity ([3]; csUBP7 Badan conjugate),Badan Shape ([3]; csUBP7 Badan conjugate),Badan Dipoles ([3]; csUBP7 Badan conjugate),Acrylodan Dipoles ([3]; csUBP7 Acrylodan conjugate)
,,B1,89,,,,,,,,
,,B2,67,,,,,,,,
3.4,16,B3,,y,y,+,m,+,m,b/g,
7.1,8.5,B4,,y,y,+,d,+,m,b/g,b/g→b
,,B5,,y,n,−,d,,0,"g (g, green (maxima >500 nm))",b/g→g
0.7,0.6,B6,,n,y,−,m,−,d,b/g→b,b/g
,15,B7,,y,y,,0,+,d,g→b/g,"g (g, green (maxima >500 nm))"
,0.007,B8,,n,y,,0,−,d,g→b/g,"g (g, green (maxima >500 nm))"
29,10,B9,,y,y,+,d,−,m,b/g,b/g→g
